Reference: article PMC10397247

Columns and labels:
P9bH1 = molecular target: T1, P9bH1; assay: two-hybrid library CCNG1;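 further: natural log of median RNA to DNA barcode read ratio; higher means stronger binding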
T1 chain: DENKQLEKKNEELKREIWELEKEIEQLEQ

P8bH1 = molecular target: T2, P8bH1; assay: two-hybrid library CCNG1;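 further: natural log of median RNA to DNA barcode read ratio; higher means stronger binding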
T2 chain: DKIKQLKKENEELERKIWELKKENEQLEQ

P7bH1 = molecular target: T3, P7bH1; assay: two-hybrid library CCNG1;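 further: natural log of median RNA to DNA barcode read ratio; higher means stronger binding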
T3 chain: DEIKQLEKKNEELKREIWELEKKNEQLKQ

P6bH1 = molecular target: T4, P6bH1; assay: two-hybrid library CCNG1;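 further: natural log of median RNA to DNA barcode read ratio; higher means stronger binding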
T4 chain: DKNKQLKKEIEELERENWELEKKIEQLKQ

P8A-bP = molecular target: T5, P8A-bP; assay: two-hybrid library CCNG1
T5 chain: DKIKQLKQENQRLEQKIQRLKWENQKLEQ

P9A-bP = molecular target: T6, P9A-bP; assay: two-hybrid library CCNG1
T6 chain: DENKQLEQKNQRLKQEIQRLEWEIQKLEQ

4H278-AA = molecular target: T7, 4H278-AA; assay: two-hybrid library CCmax; settings: mean of both orientations
T7 chain: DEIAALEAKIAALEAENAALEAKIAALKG

4H2687-AA = molecular target: T8, 4H2687-AA; assay: two-hybrid library CCmax
T8 chain: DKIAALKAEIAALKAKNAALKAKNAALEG

4H3409-AA = molecular target: T9, 4H3409-AA; assay: two-hybrid library CCmax; settings: mean of both orientations
T9 chain: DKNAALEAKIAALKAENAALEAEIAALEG

4H510-AA = molecular target: T10, 4H510-AA; assay: two-hybrid library CCmax; settings: mean of both orientations
T10 chain: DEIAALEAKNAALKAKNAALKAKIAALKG

4H816-AA = molecular target: T11, 4H816-AA; assay: two-hybrid library CCmax; settings: mean of both orientations
T11 chain: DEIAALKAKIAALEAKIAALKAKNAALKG

4H2873-AA = molecular target: T12, 4H2873-AA; assay: two-hybrid library CCmax; settings: mean of both orientations
T12 chain: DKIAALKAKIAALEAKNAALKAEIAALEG

4H390-AA = molecular target: T13, 4H390-AA; assay: two-hybrid library CCmax; settings: mean of both orientations
T13 chain: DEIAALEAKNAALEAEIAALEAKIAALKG

4H3134-AA = molecular target: T14, 4H3134-AA; assay: two-hybrid library CCmax; settings: mean of both orientations
T14 chain: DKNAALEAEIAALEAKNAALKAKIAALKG

4H2985-AA = molecular target: T15, 4H2985-AA; assay: two-hybrid library CCmax; settings: mean of both orientations
T15 chain: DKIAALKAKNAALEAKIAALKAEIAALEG

4H3940-AA = molecular target: T16, 4H3940-AA; assay: two-hybrid library CCmax; settings: mean of both orientations
T16 chain: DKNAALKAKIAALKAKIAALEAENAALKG

4H87-AA = molecular target: T17, 4H87-AA; assay: two-hybrid library CCmax; settings: mean of both orientations
T17 chain: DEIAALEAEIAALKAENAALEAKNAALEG

4H2758-AA = molecular target: T18, 4H2758-AA; assay: two-hybrid library CCmax; settings: mean of both orientations
T18 chain: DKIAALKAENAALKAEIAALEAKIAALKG

4H2705-AA = molecular target: T19, 4H2705-AA; assay: two-hybrid library CCmax; settings: mean of both orientations
T19 chain: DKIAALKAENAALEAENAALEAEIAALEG

4H3625-AA = molecular target: T20, 4H3625-AA; assay: two-hybrid library CCmax; settings: mean of both orientations
T20 chain: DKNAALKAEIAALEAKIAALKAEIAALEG

4H775-AA = molecular target: T21, 4H775-AA; assay: two-hybrid library CCmax; settings: mean of both orientations
T21 chain: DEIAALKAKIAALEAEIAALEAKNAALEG

4H535-AA = molecular target: T22, 4H535-AA; assay: two-hybrid library CCmax; settings: mean of both orientations
T22 chain: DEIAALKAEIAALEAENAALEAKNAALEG

4H486-AA = molecular target: T23, 4H486-AA; assay: two-hybrid library CCmax; settings: mean of both orientations
T23 chain: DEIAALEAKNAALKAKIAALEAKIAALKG

4H_GCN4 = assay: two-hybrid library CCmax; settings: mean of both orientations
4H3365-AA = molecular target: T24, 4H3365-AA; assay: two-hybrid library CCmax; settings: mean of both orientations
T24 chain: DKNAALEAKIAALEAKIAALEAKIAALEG

4H895-AA = molecular target: T25, 4H895-AA; assay: two-hybrid library CCmax; settings: mean of both orientations
T25 chain: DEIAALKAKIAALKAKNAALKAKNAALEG

4H3651-AA = molecular target: T26, 4H3651-AA; assay: two-hybrid library CCmax; settings: mean of both orientations
T26 chain: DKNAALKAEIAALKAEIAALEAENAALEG

4H465-AA = molecular target: T27, 4H465-AA; assay: two-hybrid library CCmax; settings: mean of both orientations
T27 chain: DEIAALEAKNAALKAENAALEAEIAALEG

GCN2_T = assay: two-hybrid library CCmax
4H3782-AA = molecular target: T28, 4H3782-AA; assay: two-hybrid library CCmax; settings: mean of both orientations
T28 chain: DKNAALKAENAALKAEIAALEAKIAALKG

4H58-AA = molecular target: T29, 4H58-AA; assay: two-hybrid library CCmax; settings: mean of both orientations
T29 chain: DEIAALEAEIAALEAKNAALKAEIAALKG

4H3020-AA = molecular target: T30, 4H3020-AA; assay: two-hybrid library CCmax
T30 chain: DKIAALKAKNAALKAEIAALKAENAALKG

4H_APH = molecular target: T31, 4H_APH; assay: two-hybrid library CCmax; settings: mean of both orientations
T31 chain: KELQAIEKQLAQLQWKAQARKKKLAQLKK

4H_BCR = molecular target: T32, 4H_BCR; assay: two-hybrid library CCmax; settings: mean of both orientations
T32 chain: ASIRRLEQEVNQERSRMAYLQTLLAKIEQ

4H355-AA = molecular target: T33, 4H355-AA; assay: two-hybrid library CCmax; settings: mean of both orientations
T33 chain: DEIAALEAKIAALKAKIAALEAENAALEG

4H3705-AA = molecular target: T34, 4H3705-AA; assay: two-hybrid library CCmax; settings: mean of both orientations
T34 chain: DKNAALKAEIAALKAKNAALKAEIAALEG

Chain of 4H_GCN4 (chain, as listed by the source): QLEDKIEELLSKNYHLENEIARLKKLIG

Binder: DKIKQLKKENEELERKIWELKKENEQLEQ [P8bH1]
- interaction score (P9bH1): -0.01
- interaction score (P8bH1): -0.114

Binder: DKNKQLKKEIEELERENWELEKKIEQLKQ [P6bH1]
- interaction score (P9bH1): 0.0468
- interaction score (P8bH1): 0.525
- interaction score (P7bH1): 1.39
- interaction score (P6bH1): -0.419

Binder: DKIKQLKQENQRLEQKIQRLKWENQKLEQ [P8A-bP]
- interaction score (P8A-bP): -0.396
- interaction score (P9A-bP): 0

Binder: DKIAALKAEIAALKAKNAALKAKNAALEG [4H2687-AA]
- interaction score (4H278-AA): 1.88
- interaction score (4H2687-AA): -0.386
- interaction score (4H3409-AA): -0.818
- interaction score (4H510-AA): -1.76
- interaction score (4H816-AA): -1.46
- interaction score (4H2873-AA): -1.74
- interaction score (4H390-AA): -1.43
- interaction score (4H3134-AA): -1.43
- interaction score (4H2985-AA): -1.59
- interaction score (4H3940-AA): -1.7
- interaction score (4H87-AA): 1.53
- interaction score (4H2758-AA): -1.78
- interaction score (4H2705-AA): -1.7
- interaction score (4H3625-AA): -0.539
- interaction score (4H775-AA): -0.777

Binder: DKIAALKAKNAALKAEIAALKAENAALKG [4H3020-AA]
- interaction score (4H535-AA): -1.47
- interaction score (4H486-AA): -1.33
- interaction score (4H_GCN4): -0.937
- interaction score (4H3365-AA): -1.49
- interaction score (4H895-AA): -1.5
- interaction score (4H3651-AA): -1.36
- interaction score (4H465-AA): -1.7
- interaction score (GCN2_T): -0.848
- interaction score (4H3782-AA): -1.57
- interaction score (4H58-AA): -0.528
- interaction score (4H3020-AA): 0.962
- interaction score (4H_APH): -2.43
- interaction score (4H_BCR): -1.87
- interaction score (4H355-AA): -1.86
- interaction score (4H3705-AA): -1.78
